Reference: PMC9519043

Columns and labels:
[1] = molecular target: SARS-CoV-2 virus particle (S protein), native, patient saliva (SARS-CoV-2 (clinical isolates)) (UniProt P0DTC2); test: microfluidic affinity capture, RT-qPCR; conditions: 5' amino C12 linker and TEG spacer 9; 3' inverted dT; SPR (BIAcore T200, […], pH not stated; chip capture from buffer or saliva at 20 ul/min
[2] = tested on: HRSV virus particle (Human respiratory syncytial virus strain A2 (ATCC VR-1540)); test: microfluidic affinity capture, RT-qPCR; conditions: SPR (BIAcore T200, […], pH not stated

Sequence “CAGCACCGACCTTGTGCTTTGGGAGTGCTGGTCCAAGGGCGTTAATGGACA [51-nt SARS-CoV-2 aptamer, chip form]” has a binding signal [1] of 94.7 % recovery.

Work on “TAGGGAAGAGAAGGACATATGATAGTGCGGTGAGCCGTCGGACATACAAATACTTGACTAGTACATGACCACTTGA [HRSV aptamer (Percze et al.), chip form]” yielded a binding signal [2] of 74.2 % recovery.
